What is called Kd is the concentration at which binding is half-saturated. Low readings indicate higher affinity, high ones lower affinity.

Data on 5 molecules can be found in patent publication US20250346679A1 (INVOX PHARMA, published 2025).

For one assay, the target named is T1, hCD137-mFc-Avi (human; mouse, UniProt Q07011 24-186, biotin on the Avi sequence where the biotinylated form was used).
T1 construct: also called human CD137-mFc-Avi; dimeric human CD137; not shown: mouse IgG2a Fc domain (mIgG2a Fc)
As to the kind of experiment: SPR, mAb^2 captured by anti-human Fab, antigen in flow, 1:1 Langmuir fit. Here is the method:
(§1) An anti-human Fab capture antibody was immobilised on all four flow cells of a CM5 series S chip (GE Healthcare #BR-1005-30) to an average surface density of 6000 RU following the manufacturer's recommendations (GE Healthcare, human Fab capture Kit, #28958325). […] Each mAb² was captured to approximately 150 RU by injecting a 3 μg/ml solution of mAb² diluted in HBS-EP+ buffer (GE Healthcare #BR1006-69) for 60 seconds at 30 μl/min. Then different concentrations of human, cyno or mouse CD137 antigen (unbiotinylated human, cyno or mouse CD137-mFc-Avi or human CD137-Avi-His) in HBS-EP+ buffer were flowed over the chip for 3 min at 60 μl/min and then allowed to dissociate for 10 minutes. After each antigen concentration the chip was regenerated by infecting 10 mM glycine pH 2.1 at a flow rate of 30 μl/min for 30 seconds. Buffer HBS-EP+ was injected before the highest concentration of antigen and after the lowest concentration of antigen for reference subtraction, and one of the concentrations at random was repeated twice. The binding kinetics were fit with a 1:1 Langmuir model to generate equilibrium binding constants (KD) for each sample. Data analysis was performed with BiaEvaluation software version 3.2.

For a further assay, the target named is T2, cCD137-mFc-Avi (cynomolgus; mouse).
T2 construct: also called cynomolgus CD137-mFc-Avi; Cyno CD137-mFc-Avi; not shown: mouse IgG2a Fc domain (mIgG2a Fc)
T2 chain: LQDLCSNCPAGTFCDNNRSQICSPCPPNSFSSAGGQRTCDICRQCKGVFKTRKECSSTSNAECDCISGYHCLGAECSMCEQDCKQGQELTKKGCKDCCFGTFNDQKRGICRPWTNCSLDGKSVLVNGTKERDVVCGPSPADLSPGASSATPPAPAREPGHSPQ
The assay is described as above. Here is the method: as §1

Assay [1] deals with human CD137, cell-surface (human, UniProt Q07011 24-255). Kind of assay: cell-based or functional assay.
In another assay the target is T3, human GITR (human, UniProt Q9Y5U5 26-161, limits assumed).
T3 sequence (looked up): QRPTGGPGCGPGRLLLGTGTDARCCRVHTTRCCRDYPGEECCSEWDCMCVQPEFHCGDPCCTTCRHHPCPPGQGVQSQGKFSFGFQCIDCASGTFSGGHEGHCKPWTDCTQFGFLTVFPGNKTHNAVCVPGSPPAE
As to the kind of experiment: SPR, receptor amine-coupled to CM5 (~1000 RU). Here is the method:
(§2) The specificity of the anti-human CD137 Fcabs for human CD137 compared to other related TNFSFR family members was tested. 8 of the Fcabs were tested in mock mAb² (HeID1.3) format and measured by SPR in a Biacore T200 (GE Healthcare) by testing for binding to other human TNFRSF receptors: CD40, OX40 and GITR. Amine coupling (amine coupling kit, GE Healthcare, BR-1000-50) was used to coat human CD40, GITR and OX40 to approximately 1000 RU in Biacore CM5 chips (GE Healthcare, cat no 29149603). […] The chip was regenerated by injection of 10 mM glycine pH 2.5 for 12 s at 30 μl/min. Antibodies specific to the different TNFRSF members were used as positive controls to verify Biacore chip coating. Data was double reference subtracted and analysed using BIAevaluation 3.2 software.
In general terms: Surface plasmon resonance follows binding to a sensor surface in real time, without labels.

The target of a further assay is human CD40 (human, UniProt P25942 21-193, limits assumed). As to the kind of experiment: SPR, receptor amine-coupled to CM5 (~1000 RU). Here is the method:
as §2

A further assay has as its target T4, human OX40 (human, UniProt P43489 29-216).
T4 sequence (looked up): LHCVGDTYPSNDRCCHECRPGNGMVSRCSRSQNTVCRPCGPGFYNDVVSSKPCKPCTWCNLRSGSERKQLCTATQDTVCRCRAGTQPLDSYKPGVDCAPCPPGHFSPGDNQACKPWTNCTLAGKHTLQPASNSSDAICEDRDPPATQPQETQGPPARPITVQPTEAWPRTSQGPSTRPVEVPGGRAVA
As to the kind of experiment: SPR, receptor amine-coupled to CM5 (~1000 RU). How it is done: as §2

Chain of human CD40 (P25942 21-193 limits assumed): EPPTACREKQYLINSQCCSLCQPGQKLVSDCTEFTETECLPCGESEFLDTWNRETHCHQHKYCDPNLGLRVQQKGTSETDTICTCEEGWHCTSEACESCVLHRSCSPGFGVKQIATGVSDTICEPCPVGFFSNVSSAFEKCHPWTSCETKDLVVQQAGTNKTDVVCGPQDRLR
T1 sequence (Q07011 24-186): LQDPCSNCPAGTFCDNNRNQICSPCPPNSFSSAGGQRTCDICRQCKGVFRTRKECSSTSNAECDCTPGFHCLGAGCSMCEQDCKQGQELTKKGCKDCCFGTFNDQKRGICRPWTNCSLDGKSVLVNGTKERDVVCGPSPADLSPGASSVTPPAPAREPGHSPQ
Chain of human CD137, cell-surface (Q07011 24-255): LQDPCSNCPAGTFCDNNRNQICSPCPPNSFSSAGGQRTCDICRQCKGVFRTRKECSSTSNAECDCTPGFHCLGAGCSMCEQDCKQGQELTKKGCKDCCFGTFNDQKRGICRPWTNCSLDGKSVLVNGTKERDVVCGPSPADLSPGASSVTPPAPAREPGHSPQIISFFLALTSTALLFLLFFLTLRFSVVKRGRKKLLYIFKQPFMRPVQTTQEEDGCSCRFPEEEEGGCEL

B1: FS22-053 in HeID1.3 mock mAb^2 format (bispecific antibody, human IgG1, kappa)
heavy: QVQLQESGPGLVRPSQTLSLTCTVSGSTFSGYGVNWVRQPPGRGLEWIGMIWGDGNTDYNSALKSRVTMLVDTSKNQFSLRLSSVTAADTAVYYCARERDYRLDYWGQGSLVTVSSASTKGPSVFPLAPSSKSTSGGTAALGCLVKDYFPEPVTVSWNSGALTSGVHTFPAVLQSSGLYSLSSVVTVPSSSLGTQTYICNVNHKPSNTKVDKKVEPKSCDKTHTCPPCPAPELLGGPSVFLFPPKPKDTLMISRTPEVTCVVVDVSHEDPEVKFNWYVDGVEVHNAKTKPREEQYNSTYRVVSVLTVLHQDWLNGKEYKCKVSNKALPAPIEKTISKAKGQPREPQVYTLPPSRDELNPPYLFSNQVSLTCLVKGFYPSDIAVEWESNGQPENNYKTTPPVLDSDGSFFLYSKLTVYYNRWQDGNVFSCSVMHEALHNHYTQKSLSLSPG
light: DIQMTQSPASLSASVGETVTITCRASGNIHNYLAWYQQKQGKSPQLLVYNAKTLADGVPSRFSGSGSGTQYSLKINSLQPEDFGSYYCQHFWSTPRTFGGGTKLEIKRTVAAPSVFIFPPSDEQLKSGTASVVCLLNNFYPREAKVQWKVDNALQSGNSQESVTEQDSKDSTYSLSSTLTLSKADYEKHKVYACEVTHQGLSSPVTKSFNRGEC
notes: mock mAb^2: CD137 site in the CH3, Fab against hen egg lysozyme
B1: the Kd in the assay with hCD137-mFc-Avi amounted to 38 nM; with cCD137-mFc-Avi, 34 nM. Further, the “luciferase signal, NF-κB reporter assay (HEK.FRT.luc.hCD137), fold increase on Protein L crosslinking” value in assay [1] was at least 10 fold.

B2: FS22-172 in HeID1.3 mock mAb^2 format (bispecific antibody, human IgG1, kappa)
heavy: QVQLQESGPGLVRPSQTLSLTCTVSGSTFSGYGVNWVRQPPGRGLEWIGMIWGDGNTDYNSALKSRVTMLVDTSKNQFSLRLSSVTAADTAVYYCARERDYRLDYWGQGSLVTVSSASTKGPSVFPLAPSSKSTSGGTAALGCLVKDYFPEPVTVSWNSGALTSGVHTFPAVLQSSGLYSLSSVVTVPSSSLGTQTYICNVNHKPSNTKVDKKVEPKSCDKTHTCPPCPAPELLGGPSVFLFPPKPKDTLMISRTPEVTCVVVDVSHEDPEVKFNWYVDGVEVHNAKTKPREEQYNSTYRVVSVLTVLHQDWLNGKEYKCKVSNKALPAPIEKTISKAKGQPREPQVYTLPPSRDELRKYYPPYNQVSLTCLVKGFYPSDIAVEWESNGQPENNYKTTPPVLDSDGSFFLYSKLTVGADRWLEGNVFSCSVMHEALHNHYTQKSLSLSPG
light: DIQMTQSPASLSASVGETVTITCRASGNIHNYLAWYQQKQGKSPQLLVYNAKTLADGVPSRFSGSGSGTQYSLKINSLQPEDFGSYYCQHFWSTPRTFGGGTKLEIKRTVAAPSVFIFPPSDEQLKSGTASVVCLLNNFYPREAKVQWKVDNALQSGNSQESVTEQDSKDSTYSLSSTLTLSKADYEKHKVYACEVTHQGLSSPVTKSFNRGEC
notes: mock mAb^2
As for B2, the Kd with hCD137-mFc-Avi was found to be 52 nM; in the assay with cCD137-mFc-Avi, 203 nM. In addition, the “luciferase signal, NF-κB reporter assay (HEK.FRT.luc.hCD137), fold increase on Protein L crosslinking” value in assay [1] is at least 10 fold.

B3: FS22-053-012/HeID1.3 (bispecific antibody, human IgG1, kappa)
heavy: QVQLQESGPGLVRPSQTLSLTCTVSGSTFSGYGVNWVRQPPGRGLEWIGMIWGDGNTDYNSALKSRVTMLVDTSKNQFSLRLSSVTAADTAVYYCARERDYRLDYWGQGSLVTVSSASTKGPSVFPLAPSSKSTSGGTAALGCLVKDYFPEPVTVSWNSGALTSGVHTFPAVLQSSGLYSLSSVVTVPSSSLGTQTYICNVNHKPSNTKVDKKVEPKSCDKTHTCPPCPAPELLGGPSVFLFPPKPKDTLMISRTPEVTCVVVDVSHEDPEVKFNWYVDGVEVHNAKTKPREEQYNSTYRVVSVLTVLHQDWLNGKEYKCKVSNKALPAPIEKTISKAKGQPREPQVYTLPPSRDELNPPYLFSNQVSLTCLVKGFYPSDIAVEWESNGQPENNYKTTPPVLDSDGSFFLYSKLTVDHMRWLEGNVFSCSVMHEALHNHYTQKSLSLSPG
light: DIQMTQSPASLSASVGETVTITCRASGNIHNYLAWYQQKQGKSPQLLVYNAKTLADGVPSRFSGSGSGTQYSLKINSLQPEDFGSYYCQHFWSTPRTFGGGTKLEIKRTVAAPSVFIFPPSDEQLKSGTASVVCLLNNFYPREAKVQWKVDNALQSGNSQESVTEQDSKDSTYSLSSTLTLSKADYEKHKVYACEVTHQGLSSPVTKSFNRGEC
notes: mock mAb^2; also called FS22-053-012 (mock mAb^2 format)
For the molecule B3, the binding result with human GITR, with human CD40 and with human OX40 was “no binding (tested: 1 µM)” in each case.

B4: FS22-053-009/HeID1.3 (bispecific antibody, human IgG1, kappa)
heavy: QVQLQESGPGLVRPSQTLSLTCTVSGSTFSGYGVNWVRQPPGRGLEWIGMIWGDGNTDYNSALKSRVTMLVDTSKNQFSLRLSSVTAADTAVYYCARERDYRLDYWGQGSLVTVSSASTKGPSVFPLAPSSKSTSGGTAALGCLVKDYFPEPVTVSWNSGALTSGVHTFPAVLQSSGLYSLSSVVTVPSSSLGTQTYICNVNHKPSNTKVDKKVEPKSCDKTHTCPPCPAPELLGGPSVFLFPPKPKDTLMISRTPEVTCVVVDVSHEDPEVKFNWYVDGVEVHNAKTKPREEQYNSTYRVVSVLTVLHQDWLNGKEYKCKVSNKALPAPIEKTISKAKGQPREPQVYTLPPSRDELNPPYLFSNQVSLTCLVKGFYPSDIAVEWESNGQPENNYKTTPPVLDSDGSFFLYSKLTVEHTRWLDGNVFSCSVMHEALHNHYTQKSLSLSPG
light: DIQMTQSPASLSASVGETVTITCRASGNIHNYLAWYQQKQGKSPQLLVYNAKTLADGVPSRFSGSGSGTQYSLKINSLQPEDFGSYYCQHFWSTPRTFGGGTKLEIKRTVAAPSVFIFPPSDEQLKSGTASVVCLLNNFYPREAKVQWKVDNALQSGNSQESVTEQDSKDSTYSLSSTLTLSKADYEKHKVYACEVTHQGLSSPVTKSFNRGEC
notes: mock mAb^2; also called FS22-053-009 (mock mAb^2 format)
As for B4, the binding result with human GITR, in the assay with human CD40 and in the assay with human OX40 was “no binding (tested: 1 µM)” each time.

B5: FS22-053-010/HeID1.3 (bispecific antibody, human IgG1, kappa)
heavy: QVQLQESGPGLVRPSQTLSLTCTVSGSTFSGYGVNWVRQPPGRGLEWIGMIWGDGNTDYNSALKSRVTMLVDTSKNQFSLRLSSVTAADTAVYYCARERDYRLDYWGQGSLVTVSSASTKGPSVFPLAPSSKSTSGGTAALGCLVKDYFPEPVTVSWNSGALTSGVHTFPAVLQSSGLYSLSSVVTVPSSSLGTQTYICNVNHKPSNTKVDKKVEPKSCDKTHTCPPCPAPELLGGPSVFLFPPKPKDTLMISRTPEVTCVVVDVSHEDPEVKFNWYVDGVEVHNAKTKPREEQYNSTYRVVSVLTVLHQDWLNGKEYKCKVSNKALPAPIEKTISKAKGQPREPQVYTLPPSRDELNPPYLFSNQVSLTCLVKGFYPSDIAVEWESNGQPENNYKTTPPVLDSDGSFFLYSKLTVDYMRWLDGNVFSCSVMHEALHNHYTQKSLSLSPG
light: DIQMTQSPASLSASVGETVTITCRASGNIHNYLAWYQQKQGKSPQLLVYNAKTLADGVPSRFSGSGSGTQYSLKINSLQPEDFGSYYCQHFWSTPRTFGGGTKLEIKRTVAAPSVFIFPPSDEQLKSGTASVVCLLNNFYPREAKVQWKVDNALQSGNSQESVTEQDSKDSTYSLSSTLTLSKADYEKHKVYACEVTHQGLSSPVTKSFNRGEC
notes: mock mAb^2; also called FS22-053-010 (mock mAb^2 format)
Consider B5, for which the binding result with human GITR, with human CD40 and with human OX40 was “no binding (tested: 1 µM)” throughout.
